# Measured values as given in patent US6756357 (ISTITUTO DI RICHERCHE DI BIOLOGIA MOLECOLARE DI ANGELETTI S …, dated 2004).
# T1: cellular LIF receptor on HepG2 cells (human, UniProt P42702 45-1097)
# T1 sequence (looked up): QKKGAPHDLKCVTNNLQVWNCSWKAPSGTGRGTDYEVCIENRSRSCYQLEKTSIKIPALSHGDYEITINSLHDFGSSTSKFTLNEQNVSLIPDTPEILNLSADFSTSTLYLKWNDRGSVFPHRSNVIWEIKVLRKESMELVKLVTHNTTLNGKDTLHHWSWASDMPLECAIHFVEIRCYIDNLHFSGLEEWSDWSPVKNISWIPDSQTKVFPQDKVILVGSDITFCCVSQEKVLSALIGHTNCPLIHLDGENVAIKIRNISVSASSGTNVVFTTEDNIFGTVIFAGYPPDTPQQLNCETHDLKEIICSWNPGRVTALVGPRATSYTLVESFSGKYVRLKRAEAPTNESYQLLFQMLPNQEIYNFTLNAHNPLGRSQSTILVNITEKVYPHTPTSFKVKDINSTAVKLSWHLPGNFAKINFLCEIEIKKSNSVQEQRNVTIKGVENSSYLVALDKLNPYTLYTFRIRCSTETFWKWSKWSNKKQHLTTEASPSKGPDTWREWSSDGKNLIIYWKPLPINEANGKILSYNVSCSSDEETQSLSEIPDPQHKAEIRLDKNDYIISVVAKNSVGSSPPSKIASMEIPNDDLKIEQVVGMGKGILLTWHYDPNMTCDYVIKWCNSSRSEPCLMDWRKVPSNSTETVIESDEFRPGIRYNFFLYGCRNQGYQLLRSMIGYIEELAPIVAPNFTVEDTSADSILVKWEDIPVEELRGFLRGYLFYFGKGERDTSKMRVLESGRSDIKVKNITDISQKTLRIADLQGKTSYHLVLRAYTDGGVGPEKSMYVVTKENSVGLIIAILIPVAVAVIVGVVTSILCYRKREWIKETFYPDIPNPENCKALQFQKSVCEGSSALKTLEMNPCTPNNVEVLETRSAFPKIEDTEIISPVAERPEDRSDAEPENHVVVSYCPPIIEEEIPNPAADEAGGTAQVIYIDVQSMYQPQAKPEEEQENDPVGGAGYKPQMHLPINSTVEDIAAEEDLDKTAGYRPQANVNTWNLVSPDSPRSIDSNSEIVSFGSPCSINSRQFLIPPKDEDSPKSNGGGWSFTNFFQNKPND
# T2: soluble LIFR (LIF receptor) (UniProt P42702 45-833, limits assumed, 35S-labelled in the test of FIG. 1B)
# T2 construct: also called LIFR marked with 35S
# T2 sequence (looked up): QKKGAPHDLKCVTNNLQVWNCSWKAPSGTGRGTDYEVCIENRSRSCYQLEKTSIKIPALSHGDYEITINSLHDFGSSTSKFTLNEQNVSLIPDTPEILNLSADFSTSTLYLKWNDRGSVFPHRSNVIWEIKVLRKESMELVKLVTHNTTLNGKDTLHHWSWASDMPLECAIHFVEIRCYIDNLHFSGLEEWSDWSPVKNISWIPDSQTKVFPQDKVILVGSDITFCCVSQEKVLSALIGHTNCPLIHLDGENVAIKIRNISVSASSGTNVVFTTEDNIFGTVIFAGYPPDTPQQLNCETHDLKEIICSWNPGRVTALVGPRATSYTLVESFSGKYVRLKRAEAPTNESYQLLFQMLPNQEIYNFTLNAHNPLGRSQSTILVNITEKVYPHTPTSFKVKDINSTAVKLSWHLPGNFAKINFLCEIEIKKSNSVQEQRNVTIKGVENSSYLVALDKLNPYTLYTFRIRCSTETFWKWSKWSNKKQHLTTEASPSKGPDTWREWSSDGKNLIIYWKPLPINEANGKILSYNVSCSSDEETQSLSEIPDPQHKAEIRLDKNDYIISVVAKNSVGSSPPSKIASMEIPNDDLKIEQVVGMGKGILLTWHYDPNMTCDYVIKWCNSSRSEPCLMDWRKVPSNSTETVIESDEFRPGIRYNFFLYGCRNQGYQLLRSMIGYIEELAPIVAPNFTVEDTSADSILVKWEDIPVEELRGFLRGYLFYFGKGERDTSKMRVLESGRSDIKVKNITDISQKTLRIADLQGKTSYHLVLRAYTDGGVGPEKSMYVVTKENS
# T3: CNTFRα-myc (soluble extracellular domain of the CNTFRα receptor) (UniProt P26992 23-342)
# T3 construct: extracellular domain; Captured on plates or protein A-Sepharose through the anti-myc antibody 9E10; also called CNTF receptor α; soluble CNTFRα receptor
# T3 sequence (looked up): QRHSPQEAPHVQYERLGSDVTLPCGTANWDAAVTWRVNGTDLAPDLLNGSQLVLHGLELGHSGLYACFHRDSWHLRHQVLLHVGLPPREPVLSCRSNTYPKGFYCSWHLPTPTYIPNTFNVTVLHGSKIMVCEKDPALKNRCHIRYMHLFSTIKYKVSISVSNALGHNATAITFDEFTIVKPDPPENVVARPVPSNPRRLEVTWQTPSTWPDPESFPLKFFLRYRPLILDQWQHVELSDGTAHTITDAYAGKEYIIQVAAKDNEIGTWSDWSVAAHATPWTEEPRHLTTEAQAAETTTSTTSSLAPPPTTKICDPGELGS
# T4: membrane-bound CNTFRα receptor on IMR-32 cells (human, UniProt P26992 23-342)
# T4 sequence (looked up): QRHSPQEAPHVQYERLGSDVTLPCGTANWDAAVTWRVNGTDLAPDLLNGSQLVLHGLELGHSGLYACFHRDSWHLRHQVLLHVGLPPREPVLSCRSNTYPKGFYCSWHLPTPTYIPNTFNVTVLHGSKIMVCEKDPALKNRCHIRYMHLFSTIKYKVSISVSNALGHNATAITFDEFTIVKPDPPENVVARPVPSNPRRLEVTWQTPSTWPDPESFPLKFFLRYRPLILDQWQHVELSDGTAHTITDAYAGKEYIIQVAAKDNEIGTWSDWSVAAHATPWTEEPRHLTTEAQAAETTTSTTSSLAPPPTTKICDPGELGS
# Tests used:
# [1] = molecular target: T1, cellular LIF receptor on HepG2 cells; test: cell-based or functional assay
# [2] = molecular target: T2, soluble LIFR (LIF receptor); test: immunoprecipitation of 35S-LIFR with immobilised soluble CNTFRα and variant, SDS-PAGE (FIG. 1B)
# Description: It is known from the literature that the molecules gp130 and LIFR are able to bind independently to the CNTF/CNTFRα complex (11). To assess the functional importance of D1 motif residues the ability of CNTF variants to assemble receptor complexes with the different subunits was assayed. Bonding of the cytokine/CNTFRα complex to gp130 or LIFR marked with ^35S was determined using immunoprecipitation tests as described in the literature (11). The soluble CNTFRα receptor was immobilised on A-Sepharose protein using the monoclonal antibody 9E10 anti-myc and incubated with soluble gp130 or LIFR marked with sulphur ^35S, in the absence or in the presence of different amounts of CNTF variants (1 or 0.1 mg). After washing, the bound material was eluted and subjected to SDS-PAGE.
# [3] = molecular target: T3, CNTFRα-myc (soluble extracellular …); test: solid-phase competition with biotinylated CNTF or biotinylated MUT-DH for immobilised CNTFRα-myc, soluble gp130 present
# Description: The ability of CNTF variants to compete with biotinylated CNTF ([…]) for binding to the extracellular domain of the CNTFRα receptor was determined in a solid-phase binding assay, in the presence of soluble gp130, as described in preceding publications (19). "Microtiter" 96-well polystyrene culture plates were covered with […] of 50 mM sodium carbonate pH 9.5, containing […] of the monoclonal antibody 9E10, which is directed against a c-myc epitope, and the plates are then preserved at 4° C. for one night. The wells were then washed out five times with TBS (50 mM Tris-HCl, pH 7.5, 150 mM NaCl) containing 0.05% Tween and held for 90 minutes at room temperature in TBSMT (50 mM Tris-HCl, 150 mM NaCl, 5% (w/v) lyophilised non-fat milk). All subsequent incubations were carried out at room temperature on a mixer at a speed of 700 rpm, after each incubation period the wells were washed with TBS containing 0.05% Tween (five times each time). The following incubation periods were performed: (1) 2 hours with […] TBSMT containing […] of CNTFRα-myc; (2) 1 hour with […] of TBSMT containing 200 ng of gp130-flag, 5 nM biotinylated CNTF, and the various competitors and (3) 45 minutes with […] of TBS, 5% (w/v) of bovine serum albumin, 0.05% (v/v) Tween 20 containing 0.8 mg/ml avidin conjugated with alkaline phosphatase.
# The alkaline phosphatase activity was determined at 37° C. using 1 mg/ml p-nitrophenyl phosphate in 1 M of diethanolamine-HCl, pH 9.8, and absorbancy at 405 nm was measured after 40–60 minutes using a suitable reader. In some experiments the biotinylated MUT-DH variant molecule (0.5 nM) as used as a ligand.
# [4] = molecular target: T4, membrane-bound CNTFRα receptor on …; test: cell-based or functional assay
Binder,"haptoglobin secretion by HepG2 cells, without soluble CNTFRα (FIG. 2A) [1]",binding result [2],Relative Binding ((IC50 of CNTF)/(IC50 of tested protein)) [3] [ratio],inhibition of Chat activity induced by a subsaturating dose of CNTF in IMR-32 cells (FIG. 4B) [4]
"Lys155Ala/MUT-DH (ligand, human, UniProt P26441 1-200, looked up, also called FADH-CNTF; FA/DH) MAFTEHSPLTPHRRDLCSRSIWLARKIRSDLTALTESYVKHQGLNKNINLDSADGMPVASTDQWSELTEAERLQENLQAYRTFHVLLARLLEDQQVHFTPTEGDFHQAIHTLLLQVAAFAYQIEELMILLEYKIPRNEADGMPINVGDGGLFEKALWGLKVLQELDHWTVRSIHDLRFISSHQTGIPARGSHYIANNKKM",~20 % with respect to the maximum value,no binding (tested: 1 or 0.1 mg),42,
"Lys155Ala/CNTF (ligand, human, UniProt P26441 1-200, looked up, also called FA-CNTF) MAFTEHSPLTPHRRDLCSRSIWLARKIRSDLTALTESYVKHQGLNKNINLDSADGMPVASTDQWSELTEAERLQENLQAYRTFHVLLARLLEDQQVHFTPTEGDFHQAIHTLLLQVAAFAYQIEELMILLEYKIPRNEADGMPINVGDGGLFEKALWGLKVLQELSQWTVRSIHDLRFISSHQTGIPARGSHYIANNKKM",~20 % with respect to the maximum value,,1,
"MUT-DH (Ser166Asp/Gln167His/CNTF) (ligand, human, UniProt P26441 1-200, looked up, also called DH-CNTF; S166D/Q167H/CNTF) MAFTEHSPLTPHRRDLCSRSIWLARKIRSDLTALTESYVKHQGLNKNINLDSADGMPVASTDQWSELTEAERLQENLQAYRTFHVLLARLLEDQQVHFTPTEGDFHQAIHTLLLQVAAFAYQIEELMILLEYKIPRNEADGMPINVGDGGLFEKKLWGLKVLQELDHWTVRSIHDLRFISSHQTGIPARGSHYIANNKKM",,,41,

# Other lines, results leading:
"haptoglobin secretion by HepG2 cells, without soluble CNTFRα (FIG. 2A) [1]",binding result [2],Relative Binding ((IC50 of CNTF)/(IC50 of tested protein)) [3] [ratio],inhibition of Chat activity induced by a subsaturating dose of CNTF in IMR-32 cells (FIG. 4B) [4],Binder
,no binding (tested: 1 or 0.1 mg),51,70 fold excess over CNTF for 50% inhibition,"Phe152Ala/Lys155Ala/MUT-DH (ligand, human, UniProt P26441 1-200, looked up, also called AADH-CNTF; AA/DH) MAFTEHSPLTPHRRDLCSRSIWLARKIRSDLTALTESYVKHQGLNKNINLDSADGMPVASTDQWSELTEAERLQENLQAYRTFHVLLARLLEDQQVHFTPTEGDFHQAIHTLLLQVAAFAYQIEELMILLEYKIPRNEADGMPINVGDGGLAEKALWGLKVLQELDHWTVRSIHDLRFISSHQTGIPARGSHYIANNKKM"
~20 % with respect to the maximum value,no binding (tested: 1 or 0.1 mg),32,,"Phe152Ala/MUT-DH (ligand, human, UniProt P26441 1-200, looked up, also called AKDH-CNTF; AK/DH) MAFTEHSPLTPHRRDLCSRSIWLARKIRSDLTALTESYVKHQGLNKNINLDSADGMPVASTDQWSELTEAERLQENLQAYRTFHVLLARLLEDQQVHFTPTEGDFHQAIHTLLLQVAAFAYQIEELMILLEYKIPRNEADGMPINVGDGGLAEKKLWGLKVLQELDHWTVRSIHDLRFISSHQTGIPARGSHYIANNKKM"
,,0.9,,"Phe152Ala/Lys155Ala/hCNTF (ligand, human, UniProt P26441 1-200, looked up, also called Phe152Ala/Lys155Ala/CNTF; AA-CNTF) MAFTEHSPLTPHRRDLCSRSIWLARKIRSDLTALTESYVKHQGLNKNINLDSADGMPVASTDQWSELTEAERLQENLQAYRTFHVLLARLLEDQQVHFTPTEGDFHQAIHTLLLQVAAFAYQIEELMILLEYKIPRNEADGMPINVGDGGLAEKALWGLKVLQELSQWTVRSIHDLRFISSHQTGIPARGSHYIANNKKM"
,,1,,"human ciliary neurotrophic factor (hCNTF) (ligand, UniProt P26441 1-200, looked up, also called wild-type CNTF; wt) MAFTEHSPLTPHRRDLCSRSIWLARKIRSDLTALTESYVKHQGLNKNINLDSADGMPVASTDQWSELTEAERLQENLQAYRTFHVLLARLLEDQQVHFTPTEGDFHQAIHTLLLQVAAFAYQIEELMILLEYKIPRNEADGMPINVGDGGLFEKKLWGLKVLQELSQWTVRSIHDLRFISSHQTGIPARGSHYIANNKKM"
